Measured values reported in IntAct's records for PubMed 38825040.

Target: lg3bp_human LGALS3BP (UniProt Q08380)
Sequence (Q08380 whole entry): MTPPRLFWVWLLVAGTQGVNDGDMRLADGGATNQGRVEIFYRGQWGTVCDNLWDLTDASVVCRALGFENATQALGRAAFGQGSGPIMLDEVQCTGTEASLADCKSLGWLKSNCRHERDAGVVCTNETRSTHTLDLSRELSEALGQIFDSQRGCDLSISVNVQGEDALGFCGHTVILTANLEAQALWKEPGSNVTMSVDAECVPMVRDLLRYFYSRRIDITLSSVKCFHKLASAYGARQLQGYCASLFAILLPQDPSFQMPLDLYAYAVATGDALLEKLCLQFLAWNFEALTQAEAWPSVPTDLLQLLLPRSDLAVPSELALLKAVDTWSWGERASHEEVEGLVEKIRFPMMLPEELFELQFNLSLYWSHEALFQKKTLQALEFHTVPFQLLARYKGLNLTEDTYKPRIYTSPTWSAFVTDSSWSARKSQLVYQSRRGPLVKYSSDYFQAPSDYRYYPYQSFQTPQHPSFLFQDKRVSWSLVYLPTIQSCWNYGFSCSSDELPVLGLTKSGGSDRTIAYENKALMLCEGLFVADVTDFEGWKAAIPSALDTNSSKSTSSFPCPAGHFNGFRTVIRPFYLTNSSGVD

Chain of Extracellular sulfatase Sulf-2 (Homo sapiens), Q8IWU5 S583A (Q8IWU5 whole entry S583A): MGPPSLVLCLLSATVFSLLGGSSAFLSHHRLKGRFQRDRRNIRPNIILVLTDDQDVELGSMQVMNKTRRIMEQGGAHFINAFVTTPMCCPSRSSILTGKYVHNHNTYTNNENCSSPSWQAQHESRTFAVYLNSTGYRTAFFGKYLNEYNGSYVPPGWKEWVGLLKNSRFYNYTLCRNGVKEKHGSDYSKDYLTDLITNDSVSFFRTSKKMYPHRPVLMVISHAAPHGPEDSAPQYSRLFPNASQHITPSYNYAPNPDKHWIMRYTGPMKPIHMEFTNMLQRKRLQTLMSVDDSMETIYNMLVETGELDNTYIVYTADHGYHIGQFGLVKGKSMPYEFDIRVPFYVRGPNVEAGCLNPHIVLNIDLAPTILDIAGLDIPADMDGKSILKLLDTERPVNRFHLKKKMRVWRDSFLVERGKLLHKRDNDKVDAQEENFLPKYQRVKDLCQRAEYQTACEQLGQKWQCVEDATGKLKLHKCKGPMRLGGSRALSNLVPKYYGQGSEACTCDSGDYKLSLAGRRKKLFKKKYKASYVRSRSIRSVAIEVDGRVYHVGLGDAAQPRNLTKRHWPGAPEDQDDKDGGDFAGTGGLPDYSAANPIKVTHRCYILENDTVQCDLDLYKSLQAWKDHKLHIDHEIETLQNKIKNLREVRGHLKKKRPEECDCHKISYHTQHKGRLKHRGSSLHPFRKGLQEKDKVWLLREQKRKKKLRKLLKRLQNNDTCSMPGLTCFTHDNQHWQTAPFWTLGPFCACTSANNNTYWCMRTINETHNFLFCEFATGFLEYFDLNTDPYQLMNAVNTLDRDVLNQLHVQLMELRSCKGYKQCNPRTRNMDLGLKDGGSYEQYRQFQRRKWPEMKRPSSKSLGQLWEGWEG

Substance: Extracellular sulfatase Sulf-2 (Homo sapiens), Q8IWU5 S583A
- effect of a mutation on the interaction: increasing interaction strength
